Measured values from publication PMC10508174 (Cell reports, 2023).

T1: SARNP (residues 1-210) (human, UniProt P82979 1-210)
T1 sequence (looked up): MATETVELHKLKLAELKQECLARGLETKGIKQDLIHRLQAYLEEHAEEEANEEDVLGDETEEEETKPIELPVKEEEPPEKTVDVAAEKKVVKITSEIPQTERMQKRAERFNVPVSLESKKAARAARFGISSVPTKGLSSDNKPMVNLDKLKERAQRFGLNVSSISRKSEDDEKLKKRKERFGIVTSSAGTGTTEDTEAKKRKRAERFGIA

T2: SARNP-mut2 (R153A/F157A/R177A/F181A/R203A/F207A) (human, UniProt P82979 1-210, R153A | F157A | R177A | F181A | R203A | F207A)
T2 sequence (looked up): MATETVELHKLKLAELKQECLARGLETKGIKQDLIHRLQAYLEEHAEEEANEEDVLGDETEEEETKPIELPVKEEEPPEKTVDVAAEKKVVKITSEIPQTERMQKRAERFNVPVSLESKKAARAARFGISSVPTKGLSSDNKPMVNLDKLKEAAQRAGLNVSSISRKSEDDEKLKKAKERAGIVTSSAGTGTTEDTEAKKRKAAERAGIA


What was measured:
SARNP (residues 1-210) = target: T1, SARNP (residues 1-210); experiment: MST
[1] = target: T2, SARNP-mut2 …; experiment: MST
DDX39B (residues 44-428) = DDX39B (residues 44-428) (human, UniProt Q13838 44-428); experiment: crystal structure

Row | EC50 (SARNP (residues 1-210)) | EC50 [1] | binding result (DDX39B (residues 44-428)) | Binder
1 | 1300 nM | 3000 nM | – | DDX39B-CTD (residues 259-428) (domain or fragment, human, UniProt Q13838 259-428, looked up) LHGLQQYYVKLKDNEKNRKLFDLLDVLEFNQVVIFVKSVQRCIALAQLLVEQNFPAIAIHRGMPQEERLSRYQQFKDFQRRILVATNLFGRGMDIERVNIAFNYDMPEDSDTYLHRVARAGRFGTKGLAITFVSDENDAKILNDVQDRFEVNISELPDEIDISSYIEQTR
2 | – | – | binds | Tho1 (residues 123-178) (domain or fragment, S. cerevisiae, UniProt P40040 123-178, looked up) EEIKAKALDLLNKKLHRANKFGQDQADIDSLQRQINRVEKFGVDLNSKLAEELGLV
